Here are results for 125 sequences from the supplement of paper PMC9112550, “Optimization of the antimicrobial peptide Bac7 by deep mutational scanning” (BMC Biology, 2022).

In this series the test system is Escherichia coli TOP10. Put plainly: shrunken log2 fold change of peptide-encoding DNA abundance (4.5 h post-induction vs induction); higher = less antimicrobial activity (less host growth inhibition). The following applies: time post-induction: 4.5 h; library: site-saturation at positions 5, 18, 19, 20.
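Further: peptides expressed intracellularly from a pBAD plasmid library in pooled LB shake-flask culture, induced with 0.3% L-arabinose, DNA abundance read by NGS, three biological replicates, DESeq2 with apeglm shrinkage.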

Turning to RRIRERPPRLPRPRPRPMCSPRP, the “shrunken log2 fold change” value was -0.00794. On to RRIRTRPPRLPRPRPRPSKQPRP, for which the “shrunken log2 fold change” value is -0.11. For RRIRWRPPRLPRPRPRPSKNPRP the value was -0.158; for RRIRIRPPRLPRPRPRPVAWPRP, -0.0525; for RRIRDRPPRLPRPRPRPEHGPRP, 0.0582. In the case of RRIRFRPPRLPRPRPRPLVDPRP, the “shrunken log2 fold change” value is 0.0316.

Take RRIRMRPPRLPRPRPRPNYWPRP: the “shrunken log2 fold change” value was -0.0168. Regarding RRIRKRPPRLPRPRPRPWAYPRP, the “shrunken log2 fold change” value was -0.228.

Consider RRIRRRPPRLPRPRPRPTKGPRP, for which the “shrunken log2 fold change” value was determined as 0.244. For RRIRKRPPRLPRPRPRPYTQPRP, the “shrunken log2 fold change” value is -0.0811. In the case of RRIRGRPPRLPRPRPRPKDEPRP, the “shrunken log2 fold change” value was found to be 0.696.

As to RRIRTRPPRLPRPRPRPQWSPRP, the “shrunken log2 fold change” value was -0.431. RRIRGRPPRLPRPRPRPFAPPRP: the “shrunken log2 fold change” value was determined as 1. As to RRIRNRPPRLPRPRPRPEQHPRP, the “shrunken log2 fold change” value worked out at 0.0592. Under RRIRRRPPRLPRPRPRPTFTPRP stands 0.128. For RRIRQRPPRLPRPRPRPAGDPRP the value was 0.127; for RRIRDRPPRLPRPRPRPSFCPRP, -0.0945. Under RRIRDRPPRLPRPRPRPVKNPRP stands -0.0293. On to RRIRVRPPRLPRPRPRPYITPRP, for which the “shrunken log2 fold change” value was -0.77. On to RRIRQRPPRLPRPRPRPEFFPRP, for which the “shrunken log2 fold change” value was 0.0969. Regarding RRIRNRPPRLPRPRPRPNWMPRP, the “shrunken log2 fold change” value is -0.199. Regarding RRIRDRPPRLPRPRPRPNNGPRP, the “shrunken log2 fold change” value was -0.0483.

For the sequence RRIRMRPPRLPRPRPRPIQLPRP, the “shrunken log2 fold change” value is -0.0799. With RRIRFRPPRLPRPRPRPYKDPRP, the “shrunken log2 fold change” value was -0.213. Under RRIRCRPPRLPRPRPRPKDRPRP stands -0.0193; under RRIRERPPRLPRPRPRPYKAPRP, -0.123; under RRIRPRPPRLPRPRPRPSRGPRP, 0.839. Under RRIRDRPPRLPRPRPRPAWFPRP stands 0.118; under RRIRNRPPRLPRPRPRPCSWPRP, -0.117. As to RRIRFRPPRLPRPRPRPMILPRP, the “shrunken log2 fold change” value was -0.29. For RRIRVRPPRLPRPRPRPCRNPRP the value was -0.0211. As to RRIRRRPPRLPRPRPRPYMFPRP, the “shrunken log2 fold change” value was -0.448.

Turning to RRIRLRPPRLPRPRPRPGKTPRP, the “shrunken log2 fold change” value was 0.086.

As for RRIRRRPPRLPRPRPRPPYEPRP, the “shrunken log2 fold change” value is 0.492.

In the case of RRIRKRPPRLPRPRPRPDWRPRP, the “shrunken log2 fold change” value was 0.499.

For RRIRNRPPRLPRPRPRPQKLPRP, the “shrunken log2 fold change” value is -0.188. In the case of RRIRGRPPRLPRPRPRPIPPPRP, the “shrunken log2 fold change” value was 0.548.

As for RRIRYRPPRLPRPRPRPHKQPRP, the “shrunken log2 fold change” value was -0.0853. Turning to RRIRARPPRLPRPRPRPDNQPRP, the “shrunken log2 fold change” value was determined as 0.0635. Under RRIRKRPPRLPRPRPRPLPGPRP stands 0.529; under RRIRERPPRLPRPRPRPNPSPRP, -0.162. In the case of RRIRWRPPRLPRPRPRPGMTPRP, the “shrunken log2 fold change” value was 0.167. For RRIRMRPPRLPRPRPRPNQLPRP the value was 0.0894; for RRIRTRPPRLPRPRPRPRLWPRP, 0.154; for RRIRYRPPRLPRPRPRPSLCPRP, -0.109. Take RRIRGRPPRLPRPRPRPCYSPRP: the “shrunken log2 fold change” value is -0.0391.

Take RRIRARPPRLPRPRPRPNIPPRP: the “shrunken log2 fold change” value is -0.223.

Turning to RRIRMRPPRLPRPRPRPVMHPRP, the “shrunken log2 fold change” value is 0.154. RRIRDRPPRLPRPRPRPHRIPRP: the “shrunken log2 fold change” value is -0.00804. Under RRIRSRPPRLPRPRPRPWCYPRP stands -0.263; under RRIRQRPPRLPRPRPRPRGPPRP, 0.0418. Regarding RRIRRRPPRLPRPRPRPIAFPRP, the “shrunken log2 fold change” value was -0.0124. Under RRIRQRPPRLPRPRPRPSSMPRP stands -0.201. On to RRIRPRPPRLPRPRPRPASCPRP, for which the “shrunken log2 fold change” value was 0.186.

Regarding RRIRTRPPRLPRPRPRPSTNPRP, the “shrunken log2 fold change” value was -0.488.

For RRIRERPPRLPRPRPRPGVQPRP, the “shrunken log2 fold change” value was -0.351. For the sequence RRIRNRPPRLPRPRPRPVVYPRP, the “shrunken log2 fold change” value is -0.228.

With RRIRNRPPRLPRPRPRPEMGPRP, the “shrunken log2 fold change” value is -0.0261.

Regarding RRIRGRPPRLPRPRPRPMKNPRP, the “shrunken log2 fold change” value stood at 0.68.

Regarding RRIRIRPPRLPRPRPRPWWYPRP, the “shrunken log2 fold change” value was -0.179. As for RRIRMRPPRLPRPRPRPYTMPRP, the “shrunken log2 fold change” value is -0.06. On to RRIRHRPPRLPRPRPRPHRWPRP, for which the “shrunken log2 fold change” value is 0.0507.

Consider RRIRNRPPRLPRPRPRPGRLPRP, for which the “shrunken log2 fold change” value was -0.0294. For RRIRMRPPRLPRPRPRPKKGPRP the value was 0.364. As for RRIRKRPPRLPRPRPRPTGMPRP, the “shrunken log2 fold change” value stood at 0.128. With RRIRQRPPRLPRPRPRPDSAPRP, the “shrunken log2 fold change” value is -0.029. For RRIRNRPPRLPRPRPRPKYNPRP the value was -0.901. For the sequence RRIRFRPPRLPRPRPRPFSSPRP, the “shrunken log2 fold change” value is -0.468. As to RRIRIRPPRLPRPRPRPCKVPRP, the “shrunken log2 fold change” value was -0.513. For RRIRMRPPRLPRPRPRPTLAPRP the value was 1.35; for RRIRWRPPRLPRPRPRPPMEPRP, -0.131. Under RRIRCRPPRLPRPRPRPDENPRP stands -0.0357; under RRIRPRPPRLPRPRPRPEHYPRP, -0.106; under RRIRWRPPRLPRPRPRPKPCPRP, 0.229. As to RRIRIRPPRLPRPRPRPPEIPRP, the “shrunken log2 fold change” value was -0.578. Take RRIRRRPPRLPRPRPRPCMIPRP: the “shrunken log2 fold change” value is -0.108. For RRIRPRPPRLPRPRPRPRGTPRP, the “shrunken log2 fold change” value came to 0.0776. Consider RRIRFRPPRLPRPRPRPIVVPRP, for which the “shrunken log2 fold change” value was -0.0214. On to RRIRFRPPRLPRPRPRPHEQPRP, for which the “shrunken log2 fold change” value came to 0.0928. Under RRIRCRPPRLPRPRPRPNLLPRP stands -0.572; under RRIRWRPPRLPRPRPRPITEPRP, -0.355.

As for RRIRPRPPRLPRPRPRPFWCPRP, the “shrunken log2 fold change” value was -0.0114. In the case of RRIRHRPPRLPRPRPRPDQVPRP, the “shrunken log2 fold change” value is -0.0632. Under RRIRMRPPRLPRPRPRPILPPRP stands 0.0577; under RRIRMRPPRLPRPRPRPCVHPRP, 0.0648; under RRIRERPPRLPRPRPRPMLLPRP, -0.166. For RRIRIRPPRLPRPRPRPPDCPRP, the “shrunken log2 fold change” value is -0.0639. Take RRIRTRPPRLPRPRPRPHHHPRP: the “shrunken log2 fold change” value is -0.924. For RRIRNRPPRLPRPRPRPLHWPRP the value was -0.273.

Take RRIRIRPPRLPRPRPRPRGIPRP: the “shrunken log2 fold change” value is -0.0459. Turning to RRIRWRPPRLPRPRPRPDNEPRP, the “shrunken log2 fold change” value stood at 0.403.

With RRIRVRPPRLPRPRPRPTGQPRP, the “shrunken log2 fold change” value turned out to be 0.526. Take RRIRQRPPRLPRPRPRPKQRPRP: the “shrunken log2 fold change” value is 0.0443. For RRIRYRPPRLPRPRPRPNLHPRP the value was -0.821; for RRIRNRPPRLPRPRPRPGIVPRP, 0.367.

Turning to RRIRERPPRLPRPRPRPWCCPRP, the “shrunken log2 fold change” value was -0.244. Under RRIRLRPPRLPRPRPRPFMVPRP stands -0.606. Regarding RRIRSRPPRLPRPRPRPADFPRP, the “shrunken log2 fold change” value was -0.0669. RRIRPRPPRLPRPRPRPHAGPRP: the “shrunken log2 fold change” value worked out at 1.77. Consider RRIRTRPPRLPRPRPRPVKYPRP, for which the “shrunken log2 fold change” value came out at 0.0856. For RRIRLRPPRLPRPRPRPDTLPRP the value was -0.15. Under RRIRLRPPRLPRPRPRPHFHPRP stands -0.0565. For RRIRSRPPRLPRPRPRPWPAPRP the value was 0.199; for RRIRERPPRLPRPRPRPSEFPRP, -0.23. On to RRIRKRPPRLPRPRPRPQAPPRP, for which the “shrunken log2 fold change” value turned out to be 0.537. For RRIRSRPPRLPRPRPRPCPWPRP, the “shrunken log2 fold change” value is -0.115. Under RRIRDRPPRLPRPRPRPSIQPRP stands -0.0741.

Regarding RRIRFRPPRLPRPRPRPIYIPRP, the “shrunken log2 fold change” value was -0.832. As to RRIRMRPPRLPRPRPRPISWPRP, the “shrunken log2 fold change” value amounted to 0.109. Take RRIRDRPPRLPRPRPRPFLKPRP: the “shrunken log2 fold change” value was -0.212.

RRIRCRPPRLPRPRPRPEYSPRP: the “shrunken log2 fold change” value is -0.38. Under RRIRDRPPRLPRPRPRPMSYPRP stands -0.0376; under RRIRTRPPRLPRPRPRPMPCPRP, 0.159. With RRIRNRPPRLPRPRPRPEHTPRP, the “shrunken log2 fold change” value is -0.0129. As for RRIRVRPPRLPRPRPRPEPTPRP, the “shrunken log2 fold change” value is 0.0442.

Regarding RRIRVRPPRLPRPRPRPHYFPRP, the “shrunken log2 fold change” value is -0.00578. For the sequence RRIRCRPPRLPRPRPRPSKKPRP, the “shrunken log2 fold change” value is -0.0938. For RRIRNRPPRLPRPRPRPTDQPRP the value was 0.362; for RRIRTRPPRLPRPRPRPFWMPRP, -0.111. Under RRIRMRPPRLPRPRPRPIFWPRP stands 0.337; under RRIRYRPPRLPRPRPRPKSYPRP, -0.101; under RRIRCRPPRLPRPRPRPTLPPRP, 0.356. On to RRIRPRPPRLPRPRPRPNEMPRP, for which the “shrunken log2 fold change” value worked out at 0.0125.

For RRIRCRPPRLPRPRPRPDAWPRP, the “shrunken log2 fold change” value stood at 0.141. For RRIRNRPPRLPRPRPRPTNFPRP, the “shrunken log2 fold change” value is 0.0354.
